The record followed here is US20240287501A1 (VIB VZW, published 2024).

The target of assay [1] is T1, GFP-tagged ALD6 (Saccharomyces cerevisiae, UniProt P54115 2-500).
T1 construct: Yeast GFP Fusion Collection strain; also called Yeast GFP fusion collection GFP(+)15, F1; not shown: GFP tag
T1 sequence (looked up): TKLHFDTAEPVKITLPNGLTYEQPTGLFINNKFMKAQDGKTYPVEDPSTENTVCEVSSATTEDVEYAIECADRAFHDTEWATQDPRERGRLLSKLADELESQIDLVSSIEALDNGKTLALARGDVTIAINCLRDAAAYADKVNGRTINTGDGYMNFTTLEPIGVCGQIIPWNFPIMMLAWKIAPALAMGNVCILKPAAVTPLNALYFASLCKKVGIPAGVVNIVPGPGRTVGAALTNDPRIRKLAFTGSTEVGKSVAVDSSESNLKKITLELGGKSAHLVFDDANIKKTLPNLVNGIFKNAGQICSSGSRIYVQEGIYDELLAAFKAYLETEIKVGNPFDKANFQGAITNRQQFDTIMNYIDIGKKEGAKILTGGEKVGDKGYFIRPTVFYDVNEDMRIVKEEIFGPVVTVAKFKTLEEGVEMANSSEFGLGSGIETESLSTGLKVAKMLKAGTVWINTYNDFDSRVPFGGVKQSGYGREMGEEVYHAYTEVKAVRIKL
Put plainly: co-immunoprecipitation, Nb coupled to NHS-agarose beads, lysate of the yeast strain expressing the GFP-tagged target, Western blot anti-GFP. As to the method: One SIS1-specific Nanobody (44=Nb clone CA17444 corresponding to SEQ ID NO: 9), three ALD6-specific Nanobodies (53=CA17453-SEQ ID NO: 10, 54=CA17454-SEQ ID NO: 11, 60=CA17460-SEQ ID NO: 12), two BMH1-specific Nanobodies (58=CA17458-SEQ ID NO: 13, 59=CA17459-SEQ ID NO: 14) were characterized by co-immunoprecipitation assays. Each target-specific Nanobodies was covalently linked to NHS-agarose beads. The beads that were functionalized with these target-specific Nanobodies were incubated for an hour at 4° C. on a rotating device with either an EBY100 lysate or the lysate of the engineered Yeast strain expressing the target (Yeast GFP fusion collection reference for SIS1: GFP(+)22, E5, for ALD6: GFP(+)15, F1, for BMH1: GFP(+)27, D5) as a GFP-tagged protein. After washing, these beads were resuspended in SDS-PAGE loading dye and analyzed on SDS-PAGE (FIG. 8A). Separated proteins were transferred to a PVDF membrane and the Western blot (FIG. 8B) was developed with GFP-specific antibody to confirm the presence of GFP-tagged targets.
In general terms: Immunoblotting shows a protein as a band on a membrane.

Assay [2] has as its target T2, ALD6 (native, from EBY100 lysate) (Saccharomyces cerevisiae, UniProt P54115 2-500).
T2 construct: mature; Endogenous untagged protein; also called YPL061W
T2 sequence (looked up): T1 sequence (looked up)
Put plainly: co-IP, Nb on NHS-agarose beads, EBY100 yeast lysate, SDS-PAGE.

The target of assay [3] is T3, PGI1 (native, un-tagged, from EBY100 lysate) (Saccharomyces cerevisiae, UniProt P12709 2-554).
T3 construct: mature; Endogenous untagged protein, 61 kDa band; also called YBR196C; endogenous PGI1
Put plainly: co-immunoprecipitation, Nb coupled to NHS-agarose beads, EBY100 yeast lysate (native target), SDS-PAGE. As to the method: (§1) Three PGI1-specific Nanobodies (55=Nb clone CA17455 corresponding to SEQ ID NO: 15, 56=CA17456-SEQ ID NO: 16, 57=CA17457-SEQ ID NO: 17) were characterized by co-immunoprecipitation assays. Each PGI1-specific Nanobodies was covalently linked to NHS-agarose beads. The beads that were functionalized with these PGI1-specific Nanobodies were incubated for an hour at 4° C. on a rotating device with either an EBY100 lysate or the lysate of the engineered Yeast strain expressing PGI1 (Yeast GFP fusion collection reference: GFP(+)12, H11) as a GFP-tagged protein. After washing, these beads were resuspended in SDS-PAGE loading dye and analyzed on SDS-PAGE (FIG. 7A). Separated proteins were transferred to a PVDF membrane and the Western blot (FIG. 7B) was developed with GFP-specific antibody to confirm the presence of GFP-tagged PGI1.

For assay [4], the target named is T4, GFP-tagged PGI1 (Saccharomyces cerevisiae, UniProt P12709 2-554).
T4 construct: Yeast GFP Fusion Collection strain; 88 kDa band; also called GFP-PGI1; Yeast GFP fusion collection GFP(+)12, H11; not shown: GFP tag
Put plainly: co-immunoprecipitation, Nb coupled to NHS-agarose beads, lysate of the yeast strain expressing the GFP-tagged target, SDS-PAGE. As to the method: as §1

Assay [5] deals with T5, GFP-tagged PDC1 (Saccharomyces cerevisiae, UniProt P06169 2-563).
T5 construct: Yeast GFP Fusion Collection strain; also called Yeast GFP fusion collection GFP(+)12, F8; not shown: GFP tag
T5 sequence (looked up): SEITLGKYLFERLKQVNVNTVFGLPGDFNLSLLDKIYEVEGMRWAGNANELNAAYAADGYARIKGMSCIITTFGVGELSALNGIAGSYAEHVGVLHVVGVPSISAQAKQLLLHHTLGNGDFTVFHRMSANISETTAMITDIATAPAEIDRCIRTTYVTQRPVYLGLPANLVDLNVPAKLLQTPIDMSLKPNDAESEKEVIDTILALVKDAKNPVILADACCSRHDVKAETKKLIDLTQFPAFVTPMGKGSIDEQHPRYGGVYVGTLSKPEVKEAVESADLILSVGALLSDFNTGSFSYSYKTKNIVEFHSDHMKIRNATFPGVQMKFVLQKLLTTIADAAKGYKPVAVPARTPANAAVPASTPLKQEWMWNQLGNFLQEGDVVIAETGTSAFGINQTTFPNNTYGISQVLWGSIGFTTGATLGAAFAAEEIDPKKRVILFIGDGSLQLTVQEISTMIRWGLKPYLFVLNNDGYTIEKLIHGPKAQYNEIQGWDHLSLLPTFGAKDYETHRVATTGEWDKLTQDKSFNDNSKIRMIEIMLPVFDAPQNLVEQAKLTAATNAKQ
Described as above. As to the method: (§2) Two PDC1-specific Nanobodies (51=Nb clone CA17451 corresponding to SEQ ID NO: 7, 52=CA17452-SEQ ID NO: 8) were characterized by co-immunoprecipitation assays. Each PDC1-specific Nanobodies was covalently linked to NHS-agarose beads. The beads that were functionalized with these PDC1-specific Nanobodies were incubated for an hour at 4° C. on a rotating device with either an EBY100 lysate or the lysate of the engineered Yeast strain expressing PDC1 (Yeast GFP fusion collection reference: GFP(+)12, F8) as a GFP-tagged protein. After washing, these beads were resuspended in SDS-PAGE loading dye and analyzed on SDS-PAGE (FIG. 5A). Separated proteins were transferred to a PVDF membrane and the Western blot (FIG. 5B) was developed with GFP-specific antibody to confirm the presence of GFP-tagged PDC1.

Assay [6] has as its target T6, PDC1 (native, from EBY100 lysate) (Saccharomyces cerevisiae, UniProt P06169 2-563).
T6 construct: mature; Endogenous untagged protein; also called YLR044C
T6 sequence (looked up): T5 sequence (looked up)
Put plainly: co-immunoprecipitation, Nb coupled to NHS-agarose beads, EBY100 yeast lysate (native target), SDS-PAGE. As to the method: as §2

Assay [7] has as its target T7, GFP-tagged SSA1 (Saccharomyces cerevisiae, UniProt P10591 2-642).
T7 construct: Yeast GFP Fusion Collection strain; also called Yeast GFP fusion collection GFP(+)10, E4; not shown: GFP tag
Put plainly: co-immunoprecipitation, Nb coupled to NHS-agarose beads, lysate of the yeast strain expressing the GFP-tagged target, Western blot anti-GFP. As to the method: Six SSA1-specific Nanobodies (60=Nb clone CA17560 corresponding to SEQ ID NO: 19, 61=CA17561-SEQ ID NO: 20, 62=CA17562-SEQ ID NO: 21, 63=CA17563-SEQ ID NO: 22, 64=CA17564-SEQ ID NO: 23, 65=CA17565-SEQ ID NO: 24) were characterized by co-immunoprecipitation assays. Each SSA1-specific Nanobodies was covalently linked to NHS-agarose beads. The beads that were functionalized with these SSA1-specific Nanobodies were incubated for an hour at 4° C. on a rotating device with either an EBY100 lysate or the lysate of the engineered Yeast strain expressing SSA1 (Yeast GFP fusion collection reference: GFP(+)10, E4) as a GFP-tagged protein. After washing, these beads were resuspended in SDS-PAGE loading dye and analyzed on SDS-PAGE (FIG. 6A). Separated proteins were transferred to a PVDF membrane and the Western blot (FIG. 6B) was developed with GFP-specific antibody to confirm the presence of GFP-tagged SSA1.

Assay [8] addresses T8, SSA1 (native, from EBY100 lysate) (Saccharomyces cerevisiae, UniProt P10591 2-642).
T8 construct: mature; Endogenous untagged protein; also called YAL005C
As to the kind of experiment: co-IP, Nb on NHS-agarose beads, EBY100 yeast lysate, SDS-PAGE.

T7 sequence (P10591 2-642): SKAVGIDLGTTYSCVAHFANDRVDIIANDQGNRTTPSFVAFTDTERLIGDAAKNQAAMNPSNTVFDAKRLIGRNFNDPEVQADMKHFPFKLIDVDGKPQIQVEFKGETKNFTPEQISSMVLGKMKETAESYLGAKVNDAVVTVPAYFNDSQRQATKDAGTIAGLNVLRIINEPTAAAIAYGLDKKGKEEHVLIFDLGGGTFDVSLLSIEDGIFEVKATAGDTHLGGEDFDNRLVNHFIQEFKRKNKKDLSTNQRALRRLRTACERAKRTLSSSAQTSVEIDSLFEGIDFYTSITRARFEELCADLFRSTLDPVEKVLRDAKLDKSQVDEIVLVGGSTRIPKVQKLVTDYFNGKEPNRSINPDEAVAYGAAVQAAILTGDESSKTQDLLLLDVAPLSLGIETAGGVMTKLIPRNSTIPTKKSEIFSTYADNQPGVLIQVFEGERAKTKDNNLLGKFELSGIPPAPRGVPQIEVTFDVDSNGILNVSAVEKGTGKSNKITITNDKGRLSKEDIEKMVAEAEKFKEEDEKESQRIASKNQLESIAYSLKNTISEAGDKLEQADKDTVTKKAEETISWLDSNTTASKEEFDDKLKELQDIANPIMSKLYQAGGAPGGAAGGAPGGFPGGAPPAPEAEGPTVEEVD
T8 sequence (P10591 2-642): as above
T3 sequence (P12709 2-554): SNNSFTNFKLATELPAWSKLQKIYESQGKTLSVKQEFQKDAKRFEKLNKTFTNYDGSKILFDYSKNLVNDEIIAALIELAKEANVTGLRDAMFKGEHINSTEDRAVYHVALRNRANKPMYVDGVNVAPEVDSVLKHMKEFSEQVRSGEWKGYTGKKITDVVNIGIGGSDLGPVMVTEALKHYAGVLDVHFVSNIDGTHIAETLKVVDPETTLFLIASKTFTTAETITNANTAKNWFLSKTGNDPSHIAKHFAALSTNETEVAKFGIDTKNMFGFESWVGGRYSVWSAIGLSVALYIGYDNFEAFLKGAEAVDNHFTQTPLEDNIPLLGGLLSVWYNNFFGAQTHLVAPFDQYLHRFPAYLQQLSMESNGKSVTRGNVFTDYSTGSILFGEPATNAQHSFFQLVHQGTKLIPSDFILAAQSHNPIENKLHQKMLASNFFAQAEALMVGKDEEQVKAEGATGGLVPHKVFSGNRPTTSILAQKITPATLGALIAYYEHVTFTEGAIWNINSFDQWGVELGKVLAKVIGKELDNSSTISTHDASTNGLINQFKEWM
T4 sequence (P12709 2-554): as above

B1: CA17454 (VHH)
VHH: QVQLVESGGGLVQPGGSLRLSCAASGSIFSRNYIAWYRQAPGKQRELVARKTQSGATVYADSVKGRFTISTNNAKNTMYLQMNILKPEDTAVYYCNAGGLIGSWGQGTQVTVSS
notes: C-terminal 6xHis-EPEA tag is part of the entry
Take B1: the binding result in assay [1] and in assay [2] was “binds” each time.

B2: CA17456 (VHH)
VHH: QVQLVESGGGLVQPGGSLRLSCAASRSIVTINVMGWYRQAPGKEREFVAGATSGGSTDYADSVKGRFTISRDNAKNTVYLQMNSLKPEDTAVYYCNLRGTGYNYGENYWGKGTQVTVSS
notes: as for B1
As to B2, the binding result in assay [3] and in assay [4] was “binds” in each case.

B3: CA17451 (VHH)
VHH: QVQLVESGGGLVQPGGSLRLSCAASGISFSINTLGWYRQAPGKQRELVATVTTGGSTYYVDSAKGRFTVSRDNAKNTVYLQMNSLNSEDTAVYYCKLERYGVWGQGTQVTVSS
notes: as for B1
For the molecule B3, the binding result in assay [5] and in assay [6] was “binds” in each case.

B4: CA17453 (VHH)
VHH: QVQLVESGGGVVQPGGSLRLSCAASGRIFIRSAWYRQAPGKQRALVASIFSGGTTNYADSVKGRFTISRDNAKNTVILEMNNLKPEDTAVYYCNVRVRSGTDYWGQGTQVTVSS
notes: as for B1
For the molecule B4, the binding result in assay [1] and in assay [2] was “binds” throughout.

B5: CA17460 (VHH)
VHH: QVQLVESGGGLVQPGDSLRLSCAASGFTVSTNTMTWVRQAPGKGLEWVSTKYSTGGTTYANSVKGRFTISRDNAKNTLYLQMNNLKPEDTAVYYCGGADYRGQGTQVTVSS
notes: as for B1
As for B5, the binding result in assay [1] and in assay [2] was “binds” throughout.

B6: CA17564 (VHH)
VHH: QVQLVESGGGLVQPGDSLRLSCVVSVQHFGNYIVGWFRQPPGKEREFVSAISRGLRTYYADSVKGRVTISRDNAKNSVYLQMNSLKPEDTAVYYCAGSRLLEGAPRDSRGYNNWGQGTQVTVSS
notes: as for B1
For B6, the binding result in assay [7] and in assay [8] was “binds” in each case.

B7: CA17563 (VHH)
VHH: QVQLVESGGGTVQAGDSLRLSCSASGRALTPYTMAWFRQPPGKERELVAAIGRTGSGTRYAEAVKDRFTISRDNDKQELYLQMNSLKPEDTAVYYCAANRRLTTSLEYDYWGQGTQVTVSS
notes: as for B1
As for B7, the binding result in assay [7] and in assay [8] was “binds” each time.

B8: CA17455 (VHH)
VHH: QVQLVESGGGLVQPGGSLRLSCAASGITFPSYRLSWYRQAPGKERELVAAITSDGGTTNYADFVKGRFTISRDNTKNTVYLQMNSLKPEDTAVYYCKAQYFSTPLTYWGQGTQVTVSS
notes: C-terminal 6xHis-EPEA tag is part of the entry; also called PGI1-specific trapper/stripper
In the case of B8, the binding result in assay [3] and in assay [4] was “binds” in each case.

B9: CA17565 (VHH)
VHH: QVQLVESGGGRVQPGGSLRLSCVASGFTFTSYGMSWYRQTPGKEREFVAAISSESTWADYGDSVKGRFTISRDNAKKMVYLQMNSLKPDDTAVYYCNRDQVPWPTWGPGTQVTVSS
notes: as for B1
With B9, the binding result in assay [7] and in assay [8] was “binds” throughout.

B10: CA17457 (VHH)
VHH: QVQLVESGGGLVQTGGSLRLSCAASGGHFSNLAMGWFRQAPGKEREFVAAIGRSQFNLLYSNFVKGRFTISRDNAENTVYLQLNSLNSEDTAIYYCASSGGVSDWRGIMTTGARLARNYDYWGQGTQVTVSS
notes: as for B1
For B10, the binding result in assay [3] and in assay [4] was “binds” throughout.

B11: CA17452 (VHH)
VHH: QVQLVESGGGLVQAGASLTLSCAASGRTFNTYSMHWFRQAPGKEREFVAATNWGGNSKFYADSVRGRFTISRDNTKNMVYLQMNSLKPEDTAVYYCAAHRTVVGKTPDYWGQGTQVTVSS
notes: as for B1
For the molecule B11, the binding result in assay [5] and in assay [6] was “binds” throughout.
